Measured values taken from PMC12148038, “Enhancement of CEP215 dynamics for spindle pole assembly during mitosis” (Journal of Cell Science, 2025).
Values belong to the molecule of their own block, whether it stands above or below them.

Legend:
[1] = biological target: MBP–CEP215^1661-1893 (human) (UniProt Q96SN8); assay: ITC; 25 µM MBP–CEP215 1661-1893 in the cell, titrated with 250 µM PCNT fragment, 29 injections, 25°C, MicroCal PEAQ-ITC
[2] = biological target: the molecule itself; assay: SEC-MALS; each purified protein at 1 to 5 mg/ml on Superdex 200 Increase 5/150 GL with MALS-UV-RI detectors
MBP–CEP215^1814-1877 = biological target: T1, MBP–CEP215^1814-1877 (human, UniProt Q96SN8 1814-1877); assay: SEC; mixture of the two purified proteins, size exclusion chromatography followed by SDS-PAGE of the fractions; conditions: both partners purified
T1 construct: CEP215 (CDK5RAP2), human, residues 1814-1877; source: E. coli Rosetta (DE3) (pET Duet-1 vector), purified (amylose column, SEC)
T1 sequence (looked up): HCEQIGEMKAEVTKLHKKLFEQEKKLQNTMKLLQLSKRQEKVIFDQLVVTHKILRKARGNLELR

Kd [1]: 164 nM
Molecule: PCNT fragment used in the ITC experiment (from UniProt O95613 2350-2450) (domain or fragment)

binding result (MBP–CEP215^1814-1877): binds
B2: MBP–PCNT^2388-2420 (domain or fragment, human, UniProt O95613 2388-2420, looked up)
chain: RPKHVKALLQMVRDESHQILALSEGLAPPSGEP
notes: PCNT (pericentrin), human, residues 2388-2420; source: E. coli Rosetta (DE3) (pET Duet-1 vector), purified (amylose column, SEC)

Further lines, the molecule ahead of its results:

B1: PCNT^2350-2450 (domain or fragment, human, UniProt O95613 2350-2450, looked up)
chain: RLSPGSGGPEAQTAGPVTPASISGRFQPLPEAMKEKEVRPKHVKALLQMVRDESHQILALSEGLAPPSGEPHPPRKEDEIQDISLHGGKTQEVPTACPDWR
notes: PCNT (pericentrin), human, residues 2350-2450; Homodimer by SEC-MALS; calculated monomer mass 11.3 kDa, which fits a fragment without MBP; source: bacterially expressed, purified (amylose column, TEV cleavage, anion exchange, SEC)
stoichiometry N [2]: 2

B3: MBP–CEP215^1661-1893 (domain or fragment, human, UniProt Q96SN8 1661-1893, looked up)
chain: MESDNSFDLFDSSQAVTPKSVSETPPLSGNDTDSLSCDSGSSATSTPCVSRLVTGHHLWASKNGRHVLGLIEDYEALLKQISQGQRLLAEMDIQTQEAPSSTSQELGTKGPHPAPLSKFVSSVSTAKLTLEEAYRRLKLLWRVSLPEDGQCPLHCEQIGEMKAEVTKLHKKLFEQEKKLQNTMKLLQLSKRQEKVIFDQLVVTHKILRKARGNLELRPGGAHPGTCSPSRPGS
notes: Homodimer by SEC-MALS; calculated monomer mass with MBP 71.8 kDa; also called CEP215 fragment; source: bacterially expressed (pPROEX vector), purified (amylose column, SEC)
stoichiometry N [2]: 2
